Laboratory results from US20240209076A1 (KODIAK SCIENCES, published 2024).
Substitutions are numbered along the chain they refer to. One block for each binder: values may come before it.

Biological target: recombinant human IL-6 (human, UniProt P05231 30-212)
Experiment: SPR, IL-6 on CM5 chip, Fab lysate, 25 C
Protocol: Three ranges of antigen density (100-150 RU, 300-400 RU, 400-600 RU) were obtained by using variable flow times for each chip channel, later blocked with ethanolamine. Supernatants of the 96-well filtered culture lysates were injected at 50 μL/min for 120 seconds. Fitting of dissociation curves (300 seconds) to single exponential decay curve was used for the determination of dissociation rates (koff). Chip surfaces were regenerated with 10 mM Glycine pH 1.7 solution injected at 50 μL/min during 60 seconds after every cycle of sample binding and dissociation.

Chain of recombinant human IL-6 (P05231 30-212 limits assumed): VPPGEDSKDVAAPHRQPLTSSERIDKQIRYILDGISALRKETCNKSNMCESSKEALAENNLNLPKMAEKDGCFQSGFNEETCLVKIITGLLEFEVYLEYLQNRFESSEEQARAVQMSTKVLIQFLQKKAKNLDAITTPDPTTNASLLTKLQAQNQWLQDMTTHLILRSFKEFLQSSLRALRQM

B1: anti-IL-6 Fab, heavy chain M34W (Fab, V domains shown)
VH: EVQLVESGGGLVQPGGSLRLSCAASGFTFSPFAWSWVRQAPGKGLEWVAKISPGGSWTYYSDTVTGRFTFSLDTSKSTAYLQMNSLRAEDTAVYYCARQLWGYYALDIWGQGTLVTVSS
VL: DIQLTQSPSSLSASVGDRVTITCSASISVSYMYWYQQKPGKAPKLLIYDMSNLASGVPSRFSGSGSGTDFTLTISSLQPEDFATYYCMQWSGYPYTFGQGTKVEIK
notes: see m39
koff: 0.00397 s⁻¹

B3: anti-IL-6 Fab, heavy chain S56R (Fab, V domains shown)
VH: B1 VH with W34M, S56R
VL: B1 VL
notes: see m39
koff: 0.00509 s⁻¹

B6: anti-IL-6 Fab, heavy chain S30W (Fab, V domains shown)
VH: B1 VH with S30W, W34M
VL: B1 VL
notes: see m39
koff: 0.00369 s⁻¹

B9: anti-IL-6 Fab, heavy chain S56H (Fab, V domains shown)
VH: B1 VH with W34M, S56H
VL: B1 VL
notes: see m39
koff: 0.0409 s⁻¹

B10: anti-IL-6 Fab, heavy chain R98G (Fab, V domains shown)
VH: B1 VH with W34M, R98G
VL: B1 VL
notes: see m39
koff: 0.0048 s⁻¹

B13: anti-IL-6 Fab, heavy chain S61R (Fab, V domains shown)
VH: B1 VH with W34M, S61R
VL: B1 VL
notes: see m39
koff: 0.00585 s⁻¹

B23: anti-IL-6 Fab, heavy chain S35H (Fab, V domains shown)
VH: B1 VH with W34M, S35H
VL: B1 VL
notes: see m39
koff: 0.00392 s⁻¹

B24: anti-IL-6 Fab, heavy chain S35Q (Fab, V domains shown)
VH: B1 VH with W34M, S35Q
VL: B1 VL
notes: see m39
koff: 0.00354 s⁻¹

B26: anti-IL-6 Fab, heavy chain S61K (Fab, V domains shown)
VH: B1 VH with W34M, S61K
VL: B1 VL
notes: see m39
koff: 0.00558 s⁻¹

B27: anti-IL-6 Fab, heavy chain T28A (Fab, V domains shown)
VH: B1 VH with T28A, W34M
VL: B1 VL
notes: see m39
koff: 0.00396 s⁻¹

B29: anti-IL-6 Fab, heavy chain T63E (Fab, V domains shown)
VH: B1 VH with W34M, T63E
VL: B1 VL
notes: see m39
koff: 5.53e-05 s⁻¹

B30: anti-IL-6 Fab, heavy chain T63G (Fab, V domains shown)
VH: B1 VH with W34M, T63G
VL: B1 VL
notes: see m39
koff: 0.0539 s⁻¹

B32: anti-IL-6 Fab, heavy chain T58R (Fab, V domains shown)
VH: B1 VH with W34M, T58R
VL: B1 VL
notes: see m39
koff: 0.00425 s⁻¹

B33: anti-IL-6 Fab, heavy chain T63D (Fab, V domains shown)
VH: B1 VH with W34M, T63D
VL: B1 VL
notes: see m39
koff: 0.00603 s⁻¹

B35: anti-IL-6 Fab, heavy chain T28E (Fab, V domains shown)
VH: B1 VH with T28E, W34M
VL: B1 VL
notes: see m39
koff: 0.00428 s⁻¹

B37: anti-IL-6 Fab, heavy chain S30G (Fab, V domains shown)
VH: B1 VH with S30G, W34M
VL: B1 VL
notes: see m39
koff: 0.00377 s⁻¹

B38: anti-IL-6 Fab, heavy chain S30Y (Fab, V domains shown)
VH: B1 VH with S30Y, W34M
VL: B1 VL
notes: see m39
koff: 0.00352 s⁻¹

B40: anti-IL-6 Fab, heavy chain T58V (Fab, V domains shown)
VH: B1 VH with W34M, T58V
VL: B1 VL
notes: see m39
koff: 0.0562 s⁻¹

B41: anti-IL-6 Fab, heavy chain T28Y (Fab, V domains shown)
VH: B1 VH with T28Y, W34M
VL: B1 VL
notes: see m39
koff: 0.0039 s⁻¹

B43: anti-IL-6 Fab, heavy chain T28K (Fab, V domains shown)
VH: B1 VH with T28K, W34M
VL: B1 VL
notes: see m39
koff: 0.00408 s⁻¹

B44: anti-IL-6 Fab, heavy chain S61A (Fab, V domains shown)
VH: B1 VH with W34M, S61A
VL: B1 VL
notes: see m39
koff: 0.00604 s⁻¹

B46: anti-IL-6 Fab, heavy chain T58K (Fab, V domains shown)
VH: B1 VH with W34M, T58K
VL: B1 VL
notes: see m39
koff: 0.00492 s⁻¹

Results, then the binder that gave them:

koff: 0.00594 s⁻¹
B2: anti-IL-6 Fab, light chain I27F (Fab, V domains shown)
VH: B1 VH with W34M
VL: B1 VL with I27F
notes: see m39

koff: 0.00498 s⁻¹
B4: anti-IL-6 Fab, light chain A54G (Fab, V domains shown)
VH: B1 VH with W34M
VL: B1 VL with A54G
notes: see m39

koff: 0.00489 s⁻¹
B5: anti-IL-6 Fab, light chain A54L (Fab, V domains shown)
VH: B1 VH with W34M
VL: B1 VL with A54L
notes: see m39

koff: 0.00615 s⁻¹
B7: anti-IL-6 Fab, heavy chain W57F (Fab, V domains shown)
VH: B1 VH with W34M, W57F
VL: B1 VL
notes: see m39

koff: 0.00503 s⁻¹
B8: anti-IL-6 Fab, light chain L46V (Fab, V domains shown)
VH: B1 VH with W34M
VL: B1 VL with L46V
notes: see m39

koff: 0.0034 s⁻¹
B11: anti-IL-6 Fab, heavy chain V48Q (Fab, V domains shown)
VH: B1 VH with W34M, V48Q
VL: B1 VL
notes: see m39

koff: 0.00593 s⁻¹
B12: anti-IL-6 Fab, light chain I27L (Fab, V domains shown)
VH: B1 VH with W34M
VL: B1 VL with I27L
notes: see m39

koff: 0.00614 s⁻¹
B14: anti-IL-6 Fab, heavy chain T65D (Fab, V domains shown)
VH: B1 VH with W34M, T65D
VL: B1 VL
notes: see m39

koff: 0.00493 s⁻¹
B15: anti-IL-6 Fab, light chain I47V (Fab, V domains shown)
VH: B1 VH with W34M
VL: B1 VL with I47V
notes: see m39

koff: 0.0057 s⁻¹
B16: anti-IL-6 Fab, heavy chain T65G (Fab, V domains shown)
VH: B1 VH with W34M, T65G
VL: B1 VL
notes: see m39

koff: 0.00619 s⁻¹
B17: anti-IL-6 Fab, light chain D49E (Fab, V domains shown)
VH: B1 VH with W34M
VL: B1 VL with D49E
notes: see m39

koff: 0.00574 s⁻¹
B18: anti-IL-6 Fab, heavy chain T65Y (Fab, V domains shown)
VH: B1 VH with W34M, T65Y
VL: B1 VL
notes: see m39

koff: 0.00643 s⁻¹
B19: anti-IL-6 Fab, heavy chain V64A (Fab, V domains shown)
VH: B1 VH with W34M, V64A
VL: B1 VL
notes: see m39

koff: 0.00615 s⁻¹
B20: anti-IL-6 Fab, heavy chain T65A (Fab, V domains shown)
VH: B1 VH with W34M, T65A
VL: B1 VL
notes: see m39

koff: 0.00498 s⁻¹
B21: anti-IL-6 Fab, light chain L53H (Fab, V domains shown)
VH: B1 VH with W34M
VL: B1 VL with L53H
notes: see m39

koff: 0.00569 s⁻¹
B22: anti-IL-6 Fab, light chain I27W (Fab, V domains shown)
VH: B1 VH with W34M
VL: B1 VL with I27W
notes: see m39

koff: 0.00611 s⁻¹
B25: anti-IL-6 Fab, heavy chain T63K (Fab, V domains shown)
VH: B1 VH with W34M, T63K
VL: B1 VL
notes: see m39

koff: 0.00592 s⁻¹
B28: anti-IL-6 Fab, heavy chain T65L (Fab, V domains shown)
VH: B1 VH with W34M, T65L
VL: B1 VL
notes: see m39

koff: 0.00615 s⁻¹
B31: anti-IL-6 Fab, heavy chain T65I (Fab, V domains shown)
VH: B1 VH with W34M, T65I
VL: B1 VL
notes: see m39

koff: 0.00684 s⁻¹
B34: anti-IL-6 Fab, heavy chain V64F (Fab, V domains shown)
VH: B1 VH with W34M, V64F
VL: B1 VL
notes: see m39

koff: 0.0057 s⁻¹
B36: anti-IL-6 Fab, heavy chain T63Q (Fab, V domains shown)
VH: B1 VH with W34M, T63Q
VL: B1 VL
notes: see m39

koff: 0.0048 s⁻¹
B39: anti-IL-6 Fab, light chain A25S (Fab, V domains shown)
VH: B1 VH with W34M
VL: B1 VL with A25S
notes: see m39

koff: 0.00479 s⁻¹
B42: anti-IL-6 Fab, light chain A25T (Fab, V domains shown)
VH: B1 VH with W34M
VL: B1 VL with A25T
notes: see m39

koff: 0.00525 s⁻¹
B45: anti-IL-6 Fab, light chain A54Y (Fab, V domains shown)
VH: B1 VH with W34M
VL: B1 VL with A54Y
notes: see m39

koff: 0.00517 s⁻¹
B47: anti-IL-6 Fab, heavy chain V48L (Fab, V domains shown)
VH: B1 VH with W34M, V48L
VL: B1 VL
notes: see m39
